Measurements: US20060292657A1, “Phex substrates and methods using same” (priority 2003, published 2006)

Legend:
Assay in all cases: Kinetic parameters for hydrolysis of internally quenched fluorogenic peptides by secPHEX
Type in all cases: biochemical, human
Settings in all cases: other: 37° C., 10 mM Bis-Tris buffer pH 5.5, 150 mM NaCl
[1] = substrate: C[C@H](NC(=O)[C@H](CO)NC(=O)[C@H](CCCNC(=N)N)NC(=O)[C@@H](NC(=O)[C@H](Cc1c[nH]cn1)NC(=O)[C@H](CCCNC(=N)N)NC(=O)[C@H](CCCNC(=N)N)NC(=O)c1ccccc1N)[C@@H](C)O)C(=O)N[C@@H](CCC(=O)O)C(=O)N[C@@H](CC(=O)O)C(=O)N[C@@H](CC(=O)O)C(=O)N[C@@H](CO)C(=O)N[C@@H](CCC(=O)O)C(=O)N[C@@H](CCCNC(=N)N)C(=O)N[C@@H](CCC(N)=O)C(=O)NCCNc1ccc([N+](=O)[O-])cc1[N+](=O)[O-]
Summary of the method: (§1)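 Purified human recombinant secPHEX hydrolysing internally quenched fluorogenic peptides at 37° C in 10 mM Bis-Tris pH 5.5, 150 mM NaCl; fluorescence (ex 320, em 420 nm) followed continuously, <5% substrate hydrolysed, inner-filter corrected. Km and kcat by non-linear regression; kcat/Km under [S]<<Km where applicable.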

[2] = substrate: N=C(N)NCCC[C@H](NC(=O)c1ccccc1N)C(=O)N[C@@H](CCCNC(=N)N)C(=O)N[C@@H](CC(=O)O)C(=O)N[C@@H](CC(=O)O)C(=O)N[C@@H](CO)C(=O)N[C@@H](CO)C(=O)N[C@@H](CCC(=O)O)C(=O)N[C@@H](CCC(N)=O)C(=O)NCCNc1ccc([N+](=O)[O-])cc1[N+](=O)[O-]
Summary of the method: as §1

[3] = substrate: CC[C@H](C)[C@H](NC(=O)[C@H](CCC(=O)O)NC(=O)[C@H](CC(N)=O)NC(=O)[C@H](CC(=O)O)NC(=O)[C@H](CC(C)C)NC(=O)CNC(=O)[C@H](CCCNC(=N)N)NC(=O)c1ccccc1N)C(=O)N[C@@H](CCC(N)=O)C(=O)NCCNc1ccc([N+](=O)[O-])cc1[N+](=O)[O-]
Summary of the method: as §1

[4] = substrate: CC[C@H](C)[C@H](NC(=O)[C@H](CC(=O)O)NC(=O)[C@H](CC(N)=O)NC(=O)[C@H](CO)NC(=O)CNC(=O)c1ccccc1N)C(=O)N[C@@H](CCSC)C(=O)NCC(=O)N[C@@H](CCC(N)=O)C(=O)NCCNc1ccc([N+](=O)[O-])cc1[N+](=O)[O-]
Summary of the method: as §1

B1: human recombinant secPHEX (Homo sapiens) (protein)
chain: SLQAKQEYCLKPECIEAAAAILSKVNLSVDPCDNFFRFACDGWISNNPIPEDMPSYGVYPWLRHNVDLKLKELLEKSISRRRDTEAIQKAKILYSSCMNEKAIEKADAKPLLHILRHSPFRWPVLESNIGPEGVWSERKFSLLQTLATFRGQYSNSVFIRLYVSPDDKASNEHILKLDQATLSLAVREDYLDNSTEAKSYRDALYKFMVDTAVLLGANSSRAEHDMKSVLRLEIKIAEIMIPHENRTSEAMYNKMNISELSAMIPQFDWLGYIKKVIDTRLYPHLKDISPSENVVVRVPQYFKDLFRILGSERKKTIANYLVWRMVYSRIPNLSRRFQYRWLEFSRVIQGTTTLLPQWDKCVNFIESALPYVVGKMFVDVYFQEDKKEMMEELVEGVRWAFIDMLEKENEWMDAGTKRKAKEKARAVLAKVGYPEFIMNDTHVNEDLKAIKFSEADYFGNVLQTRKYLAQSDFFWLRKAVPKTEWFTNPTTVNAFYSASTNQIRFPAGELQKPFFWGTEYPRSLSYGAIGVIVGHEFTHGFDNNGRKYDKNGNLDPWWSTESEEKFKEKTKCMINQYSNYYWKKAGLNVKGKRTLGENIADNGGLREAFRAYRKWINDRRQGLEEPLLPGITFTNNQLFFLSYAHVRCNSYRPEAAREQVQIGAHSPPQFRVNGAISNFEEFQKAFNCPPNSTMNRGMDSCRLW
notes: pure soluble form of PHEX (secPHEX); made in house
[1]
  Km: 3.0 µM
  kcat: 0.2 s⁻¹
  kcat/Km: 66700 M⁻¹ s⁻¹
[2]
  Km: 5.3 µM
  kcat: 0.5 s⁻¹
  kcat/Km: 94300 M⁻¹ s⁻¹
[3]
  Km: 7.0 µM
  kcat: 0.03 s⁻¹
  kcat/Km: 4300 M⁻¹ s⁻¹
[4]
  Km: 13.0 µM
  kcat: 0.01 s⁻¹
  kcat/Km: 800 M⁻¹ s⁻¹
